B1: mono-Eu-labeled relaxin-3 agonist H3 relaxin B-chain, INSL5 A chain (H3/I5) [modified: mono-Eu label on the peptide; chain and site not stated] [not stated | human] / HA-tagged human RXFP3 (HA-RXFP3) [human] (parent complex)
chain 1: RAAPYGVRLCGREFIRAVIFTCGGSRW
chain 2: QDLQTLCCTDGCSMTDLSALC
chain 3: QMADAATIATMNKAAGGDKLAELFSLVPDLLEAANTSGNASLQLPDLWWELGLELPDGAPPGHPPGSGGAESADTEARVRILISVVYWVVCALGLAGNLLVLYLMKSMQGWRKSSINLFVTNLALTDFQFVLTLPFWAVENALDFKWPFGKAMCKIVSMVTSMNMYASVFFLTAMSVTRYHSVASALKSHRTRGHGRGDCCGRSLGDSCCFSAKALCVWIWALAALASLPSAIFSTTVKVMGEELCLVRFPDKLLGRDRQFWLGLYHSQKVLLGFVLPLGIIILCYLLLVRFIADRRAAGTKGGAAVAGGRPTGASARRLSKVTKSVTIVVLSFFLCWLPNQALTTWSILIKFNAVPFSQEYFLCQVYAFPVSVCLAHSNSCLNPVLYCLVRREFRKALKSLLWRIASPSITSMRPFTATTKPEHEDQGLQAPAPPHAAAEPDLLYYPPGVVVYSGGRYDLLPSSSAY

Variants of: B1
Test: Eu-H3/I5 binding on cells, normalized to cell surface expression; read off a plot

Row | Variant | percent of parent
1 | chain 3 D258A | ~79 % of RXFP3 binding
2 | chain 3 E140A, chain 3 D144A | ~6 % of RXFP3 binding
3 | chain 3 D144A | ~9.5 % of RXFP3 binding
4 | chain 3 E54A, chain 3 D57A | ~130 % of RXFP3 binding
5 | chain 3 E243A | ~15 % of RXFP3 binding
6 | chain 3 D74A | ~81 % of RXFP3 binding

Now from value to variant:

Row | percent of parent | Variant
7 | ~99 % of RXFP3 binding | chain 3 D46A, chain 3 E50A
8 | ~5.5 % of RXFP3 binding | chain 3 E140A
9 | ~77 % of RXFP3 binding | chain 3 E361A
10 | ~96 % of RXFP3 binding | chain 3 D252A
11 | ~110 % of RXFP3 binding | chain 3 E71A

From PMC3579193, “Elucidation of relaxin-3 binding interactions in the extracellular loops of RXFP3” (Frontiers in Endocrinology, 2013)
